A short description of this data set: protein stability index of a GFP-peptide fusion (GPS, HEK-293T) (PSI 1-6); higher = more stable.
Where [1] appears, read: treatment: DMSO, c terminus: a fixed tail appended.
Setting [2] is: treatment: MLN4924 1 uM, 8 h, c terminus: a fixed tail appended.
The mark [3] stands for this setting: treatment: DMSO, c terminus: native.
[4] abbreviates: treatment: MLN4924 1 uM, 8 h, c terminus: native.

± gives the standard deviation.
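Note: 24-mer peptide tiles fused after GFP, lentivirally expressed, FACS-sorted into six equal bins by GFP/DsRed ratio, decoded by Illumina sequencing, PSI is the read-weighted mean bin number.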

TFFCTNATIHGAIRLVCSRGNRLK [SCNN1D]: the protein stability index was found to be 2.54 ± 0.27 under setting [1] and 2.41 ± 0.41 under setting [2].

On to QWQDLMSIMEMQAMEVNTSASEIL [NFE2L1], for which the protein stability index by setting is: under setting [1], 2.88 ± 0.45; under setting [2], 2.86 ± 0.4.

Turning to MPSSTTQKDSYQPPGNVYWPLRGK [SPAG8], the protein stability index is, setting by setting: under setting [1], 4.21 ± 0.28; under setting [2], 4.22 ± 0.28.

Consider GEAAAGGAAEEARRLEQRWGFGLE [ACBD3], for which the protein stability index under setting [1] amounted to 4.49 ± 0.38 and the protein stability index under setting [2] stood at 4.43 ± 0.38.

Regarding VEEGDSRFLANEVLQENYTHLPKA [WEE1], the protein stability index turned out to be 4.74 ± 0.2 under setting [1] and 4.81 ± 0.13 under setting [2].

Turning to GLRLCRPKAKAKAKAKAKDQTKAQ [RPL29], the protein stability index is, setting by setting: under setting [1], 3.91 ± 0.23; under setting [2], 4.16 ± 0.34.

With RATSLGRPEEEEDELAHRCSSFMA [CPOX], the protein stability index worked out at 4.68 ± 0.33 under setting [1] and 4.71 ± 0.17 under setting [2].

In the case of AYSLNKIHAYNLGTNAWEEIATKP [KLHDC10], the protein stability index is, setting by setting: under setting [1], 2.56 ± 0.39; under setting [2], 2.79 ± 0.57.

Regarding LVLKIMSGTFAPISDRYSPELRQL [NEK8], the protein stability index reads like this: under setting [1], 2.9 ± 0.6; under setting [2], 2.69 ± 0.5.

ENLFTGEDLDELEEELNTLDLEE [ZC3H15] showed a protein stability index under setting [3] of 4.26 ± 0.32 and a protein stability index under setting [4] of 4.65 ± 0.32.

For the sequence AAIFSLFFVPLSYLLMVTVILLPY [TMEM175], the protein stability index was found to be 2.91 ± 0.11 under setting [1] and 3.01 ± 0.53 under setting [2].

Turning to LYHNVEGFTDRREARKYASNLLKA [DVL3], the protein stability index was determined as 3.39 ± 0.071 under setting [1] and 3.49 ± 0.22 under setting [2].

PENVEDSGLDSPSHAAPGPSPDSW [FCHO1] showed a protein stability index under setting [1] of 5.37 ± 0.13 and a protein stability index under setting [2] of 5.46 ± 0.2.

Take SEDWTMEERFRPLTFHGLILRSQL [CLCN6]: the protein stability index by setting is: under setting [1], 2.32 ± 0.13; under setting [2], 2.23 ± 0.18.

As for KSEGLSGRVLRKLPFLAHALYVQA [TRIP13], the protein stability index amounted to 2.3 ± 0.58 under setting [1] and 2.13 ± 0.42 under setting [2].

Take TLSLKQTILDKEEKQRRNVAKNY [TTC32]: the protein stability index was 4.27 ± 0.36 under setting [3] and 4.29 ± 0.54 under setting [4].

GNAHYQRADFVLAANSYDLAIKAI [FKBP8] registered a protein stability index under setting [1] of 2.5 ± 0.079 and a protein stability index under setting [2] of 2.43 ± 0.33.

With HPGRGLAGRWLWGAQPCLLLPIVP [ADAMTS4], the protein stability index under setting [1] is 2.08 ± 0.7 and the protein stability index under setting [2] turned out to be 1.92 ± 0.31.

In the case of PAMQRYVKRLHEVGRTEPELLVAH [HMOX1], the protein stability index under setting [1] was determined as 3.1 ± 0.29 and the protein stability index under setting [2] worked out at 3.37 ± 0.29.

Consider MKGFSFKEDTLLLIAEVMGEDIPE [C8orf76], for which the protein stability index reads like this: under setting [1], 2.09 ± 0.11; under setting [2], 2.21 ± 0.24.

As for YLTSQLPPLREIILGPSSAYTQTQ [NFE2L1], the protein stability index came to 2.38 ± 0.3 under setting [1] and 2.52 ± 0.1 under setting [2].

With KLDIQCDLKTLSDDIKESLESEGK [ATE1], the protein stability index by setting is: under setting [1], 5.19 ± 0.23; under setting [2], 5.01 ± 0.1.

HTRQLISCGGDGGIVVWNMDVERQ [WDFY2]: the protein stability index runs as follows: under setting [1], 2.55 ± 0.36; under setting [2], 2.4 ± 0.14.

Consider SKRLYGVYDNEKKLQLQLNETKSQ [PLD5], for which the protein stability index was 4.19 ± 0.27 under setting [1] and 4 ± 0.18 under setting [2].

As to VPAPEAFRDPIWSTWALYGRAVDQ [MYORG], the protein stability index runs as follows: under setting [1], 2.66 ± 0.38; under setting [2], 2.61 ± 0.34.

With KPVVNVSYRPAYDQGGPVEILPFL [DUSP5], the protein stability index reads like this: under setting [1], 2.62 ± 0.14; under setting [2], 2.66 ± 0.39.

Take FEFDETSFWNSSHPRGWNDHVHIL [KLHDC2]: the protein stability index under setting [1] came out at 2.37 ± 0.64 and the protein stability index under setting [2] turned out to be 2.18 ± 0.28.

Consider PAARRCHSCVQIKNDVFICGGYNG [KLHDC10], for which the protein stability index reads like this: under setting [1], 2.29 ± 0.42; under setting [2], 2.43 ± 0.2.

MGGTTSTRRVTFEADENENITVVK [CHCHD3]: the protein stability index by setting is: under setting [1], 4.95 ± 0.27; under setting [2], 5.11 ± 0.21.

On to VYGVSKETFLSFLEYLYTDSCCPA [RHOBTB3], for which the protein stability index amounted to 2.16 ± 0.41 under setting [1] and 2.1 ± 0.24 under setting [2].

SPICLSTSLSLAQVGAKGDTANEI [SERPINB5]: the protein stability index runs as follows: under setting [1], 4.68 ± 0.15; under setting [2], 4.54 ± 0.21.

For NGVRVFPPAMPPPATHLSPALAPV [TRIM9], the protein stability index reads like this: under setting [1], 3.22 ± 0.28; under setting [2], 3.34 ± 0.14.

As to APDRLRASASCSHWRECLFYPALW [FBXO33], the protein stability index reads like this: under setting [1], 2.33 ± 0.43; under setting [2], 2.28 ± 0.26.

With VSCPKSEVRAKFKFSLLNAKREET [SPOPL], the protein stability index reads like this: under setting [1], 3.67 ± 0.3; under setting [2], 3.53 ± 0.19.

Consider SVNSDCETYMSADDLRINLWHLAI [PPP2R2C], for which the protein stability index turned out to be 2.52 ± 0.54 under setting [1] and 2.29 ± 0.21 under setting [2].

For the sequence HWFRKGLRLHDNPALKECIQGADT [CRY1], the protein stability index by setting is: under setting [1], 3.11 ± 0.19; under setting [2], 3.45 ± 0.38.

QVNEINFENMSNDDAVRVLREIVH [DVL3]: the protein stability index is, setting by setting: under setting [1], 3.01 ± 0.16; under setting [2], 3.09 ± 0.37.

QNQVDELERKFRCQQEQLFQTRQE [LRRC45] had a protein stability index under setting [1] of 5.04 ± 0.22 and a protein stability index under setting [2] of 5.02 ± 0.12.

For the sequence HHHHGRDFLLRAASFDVCESVDEA [RHOBTB2], the protein stability index reads like this: under setting [1], 4.04 ± 0.38; under setting [2], 4.25 ± 0.27.

The sequence FCDRCCSQKVPLRRMCFVDPVRQC [ZFYVE21] showed a protein stability index under setting [1] of 2.29 ± 0.14 and a protein stability index under setting [2] of 2.04 ± 0.15.

For the sequence KLRRQVIQVVLNGMESYQEVTVQR [ZER1], the protein stability index under setting [1] came to 2 ± 0.19 and the protein stability index under setting [2] turned out to be 2.28 ± 0.57.

On to AKVESMDQEIKFFRCLFEAEITQI [KRT71], for which the protein stability index is 2.01 ± 0.51 under setting [1] and 2.19 ± 0.15 under setting [2].

On to TNLLEGAVAFMPEDITKGTQSLPT [AUP1], for which the protein stability index is, setting by setting: under setting [1], 4.55 ± 0.12; under setting [2], 4.47 ± 0.17.

Turning to SPELQEEFGYNAETQKLLCKNGET [ARFIP2], the protein stability index came out at 5.31 ± 0.29 under setting [1] and 5.46 ± 0.11 under setting [2].

As for PAVPFAPHFLQGGPFPLPYTAPGG [TBX6], the protein stability index was 2.95 ± 0.097 under setting [1] and 3.03 ± 0.14 under setting [2].

As to SRRDESYSRGYRNRRSSRETREYA [RBMY1A1], the protein stability index is, setting by setting: under setting [1], 4.5 ± 0.32; under setting [2], 4.64 ± 0.31.

With NTHAKSILNSMNSLRKSNTLCDVT [KLHL12], the protein stability index came out at 2.82 ± 0.4 under setting [1] and 3.27 ± 0.43 under setting [2].

For CYDPKGDQWNILQTPILEGRSGPG [KLHL14], the protein stability index is, setting by setting: under setting [1], 2.53 ± 0.31; under setting [2], 2.77 ± 0.43.

On to KHVLYVEHRHLNPDTELKRYFGAR [TCF25], for which the protein stability index reads like this: under setting [1], 2.29 ± 0.42; under setting [2], 2.48 ± 0.36.

Consider DRLLVERIFAQYMVPHNLETTERM [PDS5B], for which the protein stability index came to 2.29 ± 0.31 under setting [1] and 2.17 ± 0.086 under setting [2].

Turning to SLGIELHCNVSNILHMNGSQSSTY [ZNF396], the protein stability index amounted to 2.18 ± 0.38 under setting [1] and 2.16 ± 0.27 under setting [2].

With EAINFCRGLGSQASTVTEIVKQQD [ACSBG2], the protein stability index is, setting by setting: under setting [1], 4.12 ± 0.11; under setting [2], 4.11 ± 0.18.

Take LAVRSLRRVGGSRILLRMTLGREV [NLN]: the protein stability index under setting [1] was determined as 2.73 ± 0.68 and the protein stability index under setting [2] was 2.37 ± 0.55.

As to RALSEYLAVFARCLAGCEGAHEQV [P3H4], the protein stability index is, setting by setting: under setting [1], 2.62 ± 0.86; under setting [2], 2.89 ± 0.91.

For the sequence QQQEPPLAMGTVSLGQLPLPPIPH [PLAGL1], the protein stability index is, setting by setting: under setting [1], 4.33 ± 0.14; under setting [2], 4.35 ± 0.15.

For the sequence HELLLGSLQQQHQADLELIESAHR [FBF1], the protein stability index is, setting by setting: under setting [1], 4.66 ± 0.24; under setting [2], 4.35 ± 0.21.

With VDICHMLVQFCRLGSPRSRGCLW [EHMT1], the protein stability index turned out to be 2.67 ± 0.14 under setting [3] and 2.71 ± 0.66 under setting [4].

As for MEEMQNKAVVFFVFYLWSAIEIFR [HACD3], the protein stability index came out at 2.7 under setting [1] and 2.8 ± 0.63 under setting [2].

As for KFYTWLWGVFYYFVSALGITAGAH [SCD], the protein stability index is, setting by setting: under setting [1], 2.253 ± 0.003; under setting [2], 2.84 ± 1.1.

Turning to QELVDYVNARQKQGIYEEYEDIRR [PTPN9], the protein stability index by setting is: under setting [1], 3.88 ± 0.24; under setting [2], 3.86 ± 0.2.

Turning to NEHKSCEEKSVKNTSIRVADFGSA [CLK3], the protein stability index worked out at 4.89 ± 0.16 under setting [1] and 5.03 ± 0.14 under setting [2].

CFARKSQLTGHQRIHSGEEPHKCP [ZNF449]: the protein stability index under setting [1] worked out at 3.64 ± 0.1 and the protein stability index under setting [2] was found to be 4.01 ± 0.18.

Consider VDDVSVSLRLWDTFGDHHKDRRFA [RHOBTB2], for which the protein stability index by setting is: under setting [1], 3.28 ± 0.23; under setting [2], 3.19 ± 0.28.

Take LNRDEEIIKQLQKGVQQKRPSEAQ [DENND6A]: the protein stability index is, setting by setting: under setting [1], 4.94 ± 0.097; under setting [2], 4.83 ± 0.31.

Take YGPVEVISHWHPNITINIVDDHTP [CLPTM1]: the protein stability index under setting [1] is 2.41 ± 0.23 and the protein stability index under setting [2] came to 2.54 ± 0.17.

For the sequence GSLDIMKMLLMYCAKMEKDGYGMT [FEM1C], the protein stability index is, setting by setting: under setting [1], 3.22 ± 0.46; under setting [2], 2.58 ± 0.7.

Regarding ASEPLPWDLRFRIIHETAVGMNFL [RIPK4], the protein stability index by setting is: under setting [1], 2.43 ± 0.15; under setting [2], 2.33 ± 0.19.

Turning to KQFHNEVLKAHNEYRQKHGVPPLK [GLIPR2], the protein stability index stood at 3.79 ± 0.19 under setting [1] and 3.72 ± 0.17 under setting [2].

As to HPLHPRHRKAVHLRTRGRTRGWVQ [C6orf223], the protein stability index was 3.15 ± 0.23 under setting [1] and 3.05 ± 0.49 under setting [2].

For the sequence AFTEYVHAYFRGHSPSCLARVTGE [FCHO1], the protein stability index runs as follows: under setting [1], 2.1 ± 0.28; under setting [2], 2.22 ± 0.25.

In the case of ACVVQQKDARQWFAELSVDMEKIL [CCNC], the protein stability index is, setting by setting: under setting [1], 2.51 ± 0.26; under setting [2], 2.42 ± 0.17.

Take QNNQAKELERLIDKAMKKDGLVGM [FIS1]: the protein stability index is, setting by setting: under setting [1], 4.18 ± 0.19; under setting [2], 4.3 ± 0.12.

Source of the values: the supplement of paper PMC10567573.
